Source: US11814663B2, “Microorganisms with improved 1,3-propanediol and butyric acid production” (METABOLIC EXPLORER, priority 2018, dated 2023)
Changes are numbered by the printed parent chain. Numbers in names are those of the source.

Tests used:
Format in all cases: biochemical, Clostridium acetobutylicum ATCC824
[1] = target: T1, Clostridium acetobutylicum glycerol kinase GlpK wt (glpK, CA_C1321, Uniprot Q97JG4), SEQ ID NO: 1 (Clostridium acetobutylicum, UniProt Q97JG4); assay: Glycerol kinase activity towards glycerol (ADP appearance coupled to NADH oxidation), wild type; conditions: pH 9, 30° C., 2 mM ATP, 0.01-50 mM glycerol
T1 construct: GlpK wt; Q97JG4; made in house; host or cells: E. coli BL21(DE3) star
T1 sequence (Q97JG4 1-498): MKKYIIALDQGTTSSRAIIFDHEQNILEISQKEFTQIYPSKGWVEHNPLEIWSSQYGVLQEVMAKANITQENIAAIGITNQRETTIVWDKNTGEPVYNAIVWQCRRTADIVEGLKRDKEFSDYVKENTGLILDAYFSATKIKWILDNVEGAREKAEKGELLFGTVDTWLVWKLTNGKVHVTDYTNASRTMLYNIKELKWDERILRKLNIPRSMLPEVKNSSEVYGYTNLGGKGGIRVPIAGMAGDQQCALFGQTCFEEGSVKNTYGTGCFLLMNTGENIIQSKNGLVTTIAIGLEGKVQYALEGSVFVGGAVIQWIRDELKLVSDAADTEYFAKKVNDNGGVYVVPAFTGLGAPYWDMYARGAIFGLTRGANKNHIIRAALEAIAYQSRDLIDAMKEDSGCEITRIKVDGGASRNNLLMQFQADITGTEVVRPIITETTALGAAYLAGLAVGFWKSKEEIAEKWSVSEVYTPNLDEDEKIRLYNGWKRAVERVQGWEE
Description: (§1) Three different point mutations were identified in glpK gene in the clone PD0557Vc05 leading to the mutant protein GlpK* with H22Y, A347T and V466M (table 2 above). In order to better characterize the effect of the mutations, we tested them individually or in combination. Therefore, the alleles coding for the mutated glycerol kinase were cloned into the expression plasmid pPAL7 (Biorad®) and the plasmids obtained were transformed into E. coli strain BL21(DE3) star to purify each mutated protein and perform biochemical experiments. […]
(§2) The proteins were purified from the crude cell-extract by affinity on a Profinity column (BIORAD, Bio-Scale Mini Profinity exact cartridge 5 ml) according to the protocol recommended by the manufacturer. […] Protein concentration was measured using the Bradford protein assay.
(§3) Determination of kinetic parameters of GlpK wild type and mutants Glycerol kinase activity (GLPK) that catalyses the following reaction: Glycerol+ATP=>Glycerol-3-Phosphate+ADP, was determined by measuring the ADP appearance by enzymatic coupling to NADH oxidation. […] The oxidation of NADH was monitored at 30° C. by absorbance at 340 nm on a spectrophotometer (λ340=6290 M^−1 cm^−1).
(§4) One unit of enzyme activity was defined as the amount of enzyme catalyzing the decrease of 1 μmol of NADH per min. Kinetic parameters were determined with Sigmaplot by fitting to the Michaelis-Menten equation.

[2] = target: T2, Clostridium acetobutylicum glycerol kinase GlpK variant GlpK*(H22Y/A347T/V466M), SEQ ID NO: 13 (Clostridium acetobutylicum, UniProt Q97JG4, A347T/H22Y/V466M); assay: Glycerol kinase activity towards glycerol (ADP appearance coupled to NADH oxidation), H22Y/A347T/V466M; conditions: pH 9, 30° C., 2 mM ATP, 0.01-50 mM glycerol
T2 construct: made in house; host or cells: E. coli BL21(DE3) star
T2 sequence (Q97JG4 1-498 H22Y/A347T/V466M): T1 sequence (Q97JG4 1-498) with H22Y, A347T, V466M
Description: as §1, §2, §3, §4

[3] = substrate: OCC(O)CO; assay: Glycerol kinase activity towards glycerol (ADP appearance coupled to NADH oxidation), wild type; conditions: other: GlpK wt, pH 9, 30° C., 2 mM ATP, 0.01-50 mM glycerol
Description: (§5) Three different point mutations were identified in glpK gene in the clone PD0557Vc05 leading to the mutant protein GlpK* with H22Y, A347T and V466M (table 2 above). In order to better characterize the effect of the mutations, we tested them individually or in combination. Therefore, the alleles coding for the mutated glycerol kinase were cloned into the expression plasmid pPAL7 (Biorad®) and the plasmids obtained were transformed into E. coli strain BL21(DE3) star to purify each mutated protein and perform biochemical experiments.
(§6) Cultures of the seven strains 1 to 7 for the overproduction of the proteins were realized in a 2 L Erlenmeyer flask, using LB broth (Bertani, 1951) that was supplemented with 5 g/L glucose and 100 mg/L of ampicillin. An overnight culture was used to inoculate a 500 mL culture to an OD600 nm of about 0.15. The culture was first kept on a shaker at 37° C. and 200 rpm until OD600 nm was about 0.5 and then the culture was moved on a second shaker at 25° C. and 200 rpm until OD600 nm was 0.6-0.8 (about one hour), before induction with 500 μM IPTG. The culture was kept at 25° C. and 200 rpm until OD600 nm was around 4, and then it was stopped. Cells were centrifuged at 7000 rpm, 5 minutes at 4° C., and then stored at −20° C. This protocol was the same for strains 1 to 7.
(§7) For each strain, about 250 mg of E. coli biomass was suspended in 40 ml of 100 mM potassium phosphate pH 7.6, and a protease inhibitor cocktail. The cells suspension (15 ml per conical tube) was sonicated on ice (Bandelin sonoplus, 70 w) in a 50 ml conical tube during 8 cycles of 30 sec with 30 sec intervals. After sonication, cells were incubated for 30 min at room temperature with 5 mM MgCl2 and 1 UI/ml of DNaseI. Cells debris were removed by centrifugation at 12000 g for 30 min at 4° C.
as §2, with “manufacturer. The crude extract was loaded on a 5 ml Profinity exact cartridge equilibrated with 100 mM potassium phosphate pH 7.6.” for “manufacturer.”
as §3, §4

[4] = substrate: OCC(O)CO; assay: Glycerol kinase activity towards glycerol (ADP appearance coupled to NADH oxidation), A347T/V466M; conditions: other: GlpK* (A347T/V466M), pH 9, 30° C., 2 mM ATP, 0.01-50 mM glycerol
Description: as §5, §6, §7
as §2, with “manufacturer. The crude extract was loaded on a 5 ml Profinity exact cartridge equilibrated with 100 mM potassium phosphate pH 7.6.” for “manufacturer.”
as §3, §4

[5] = substrate: OCC(O)CO; assay: Glycerol kinase activity towards glycerol (ADP appearance coupled to NADH oxidation), H22Y; conditions: other: GlpK* H22Y, pH 9, 30° C., 2 mM ATP, 0.01-50 mM glycerol
Description: as §5, §6, §7
as §2, with “manufacturer. The crude extract was loaded on a 5 ml Profinity exact cartridge equilibrated with 100 mM potassium phosphate pH 7.6.” for “manufacturer.”
as §3, §4

[6] = substrate: OCC(O)CO; assay: Glycerol kinase activity towards glycerol (ADP appearance coupled to NADH oxidation), H22Y/A347T; conditions: other: GlpK* (H22Y/A347T), pH 9, 30° C., 2 mM ATP, 0.01-50 mM glycerol
Description: as §5, §6, §7
as §2, with “manufacturer. The crude extract was loaded on a 5 ml Profinity exact cartridge equilibrated with 100 mM potassium phosphate pH 7.6.” for “manufacturer.”
as §3, §4

[7] = substrate: OCC(O)CO; assay: Glycerol kinase activity towards glycerol (ADP appearance coupled to NADH oxidation), V466M; conditions: other: GlpK* V466M, pH 9, 30° C., 2 mM ATP, 0.01-50 mM glycerol
Description: as §5, §6, §7
as §2, with “manufacturer. The crude extract was loaded on a 5 ml Profinity exact cartridge equilibrated with 100 mM potassium phosphate pH 7.6.” for “manufacturer.”
as §3, §4

[8] = substrate: OCC(O)CO; assay: Glycerol kinase activity towards glycerol (ADP appearance coupled to NADH oxidation), A347T; conditions: other: GlpK* A347T, pH 9, 30° C., 2 mM ATP, 0.01-50 mM glycerol
Description: as §5, §6, §7
as §2, with “manufacturer. The crude extract was loaded on a 5 ml Profinity exact cartridge equilibrated with 100 mM potassium phosphate pH 7.6.” for “manufacturer.”
as §3, §4

[9] = substrate: OCC(O)CO; assay: Glycerol kinase activity towards glycerol (ADP appearance coupled to NADH oxidation), H22Y/A347T/V466M; conditions: other: GlpK* (H22Y/A347T/V466M), pH 9, 30° C., 2 mM ATP, 0.01-50 mM glycerol
Description: as §5, §6, §7
as §2, with “manufacturer. The crude extract was loaded on a 5 ml Profinity exact cartridge equilibrated with 100 mM potassium phosphate pH 7.6.” for “manufacturer.”
as §3, §4

`OCC(O)CO` [glycerol] gave a Kcat/km [1] of 1.52e+06 M⁻¹ s⁻¹ and a Kcat/km [2] of 33900 M⁻¹ s⁻¹.

B1: Clostridium acetobutylicum glycerol kinase GlpK wt (glpK, CA_C1321, Uniprot Q97JG4), SEQ ID NO: 1 (Clostridium acetobutylicum ATCC 824) (protein)
chain: T1 sequence (Q97JG4 1-498)
notes: GlpK wt; Q97JG4; made in house; host or cells: E. coli BL21(DE3) star
With B1 the Km [3] was 54 ± 1 µM, the Vmax [3] was 87734 ± 499 nmol/min/mg and the kcat [3] was 82.22 ± 0.467 s⁻¹. The kcat/Km [3] was 1.52e+06 ± 53000 M⁻¹ s⁻¹.

B2: Clostridium acetobutylicum glycerol kinase GlpK variant GlpK*(A347T/V466M), SEQ ID NO: 11 (Clostridium acetobutylicum ATCC 824; A347T/V466M) (protein)
chain: T1 sequence (Q97JG4 1-498) with A347T, V466M
notes: GlpK*(A347T/); made in house; host or cells: E. coli BL21(DE3) star
In the case of B2, the Km [4] is reported as 480 ± 48 µM, the Vmax [4] is reported as 6267 ± 175 nmol/min/mg and the kcat [4] is reported as 5.873 ± 0.163 s⁻¹. It also gave a kcat/Km [4] of 12310 ± 1600 M⁻¹ s⁻¹.

B3: Clostridium acetobutylicum glycerol kinase GlpK variant GlpK*(H22Y), SEQ ID NO: 5 (Clostridium acetobutylicum ATCC 824; H22Y) (protein)
chain: T1 sequence (Q97JG4 1-498) with H22Y
notes: GlpK*(H22Y); made in house; host or cells: E. coli BL21(DE3) star
Molecule B3 has a Km [5] of 70 ± 4 µM, a Vmax [5] of 91725 ± 1186 nmol/min/mg and a kcat [5] of 85.97 ± 1.12 s⁻¹. For the same molecule, the kcat/Km [5] was 1.229e+06 ± 93000 M⁻¹ s⁻¹.

B4: Clostridium acetobutylicum glycerol kinase GlpK variant GlpK*(H22Y/A347T), SEQ ID NO: 9 (Clostridium acetobutylicum ATCC 824; A347T/H22Y) (protein)
chain: T1 sequence (Q97JG4 1-498) with H22Y, A347T
notes: GlpK*(H22Y/); made in house; host or cells: E. coli BL21(DE3) star
For B4, the Km [6] was 620 ± 50 µM, the Vmax [6] was 9784 ± 195 nmol/min/mg and the kcat [6] was 9.08 ± 0.183 s⁻¹. For the same molecule, the kcat/Km [6] was 14700 ± 1500 M⁻¹ s⁻¹.

B5: Clostridium acetobutylicum glycerol kinase GlpK variant GlpK*(V466M), SEQ ID NO: 7 (Clostridium acetobutylicum ATCC 824; V466M) (protein)
chain: T1 sequence (Q97JG4 1-498) with V466M
notes: GlpK*(V466M); made in house; host or cells: E. coli BL21(DE3) star
For B5, the Km [7] was 58 ± 3 µM, the Vmax [7] was 60399 ± 537 nmol/min/mg and the kcat [7] was 56.6 ± 0.5 s⁻¹. The kcat/Km [7] was 973000 ± 52000 M⁻¹ s⁻¹.

B6: Clostridium acetobutylicum glycerol kinase GlpK variant GlpK*(A347T), SEQ ID NO: 3 (Clostridium acetobutylicum ATCC 824; A347T) (protein)
chain: T1 sequence (Q97JG4 1-498) with A347T
notes: GlpK*(A347T); made in house; host or cells: E. coli BL21(DE3) star
Work on B6 yielded a Km [8] of 260 ± 31 µM, a Vmax [8] of 6977 ± 155 nmol/min/mg and a kcat [8] of 6.538 ± 0.145 s⁻¹. For the same molecule, the kcat/Km [8] was 24900 ± 3500 M⁻¹ s⁻¹.

B7: Clostridium acetobutylicum glycerol kinase GlpK variant GlpK*(H22Y/A347T/V466M), SEQ ID NO: 13 (Clostridium acetobutylicum ATCC 824; A347T/H22Y/V466M) (protein)
chain: T1 sequence (Q97JG4 1-498) with H22Y, A347T, V466M
notes: as for B4
B7 gave a Km [9] of 39 ± 2 µM, a Vmax [9] of 1404 ± 13 nmol/min/mg and a kcat [9] of 1.32 ± 0.012 s⁻¹. The kcat/Km [9] was 33900 ± 2300 M⁻¹ s⁻¹.
